Measurements published in US20140287989A1 (CENTRE NATIONAL DE LA RECHERCHE SCIENTIFIQUE, published 2014).
Square brackets hold non-standard residues; d marks the D form. Phe(3,4-Cl2) = N[C@@H](Cc1ccc(Cl)c(Cl)c1)C(=O)O; Phe(4-Br) = N[C@@H](Cc1ccc(Br)cc1)C(=O)O; Phe(4-Cl) = N[C@@H](Cc1ccc(Cl)cc1)C(=O)O; Phe(4-Me) = Cc1ccc(C[C@H](N)C(=O)O)cc1; Cha = N[C@@H](CC1CCCCC1)C(=O)O

Tests used:
[1] = target: E. coli β clamp (β subunit of DNA polymerase III, dnaN gene product), N-tagged (E. coli) (UniProt P0A988)
[2] = target: E. coli β clamp (β subunit of DNA polymerase III, dnaN gene product), N-tagged (E. coli) (UniProt P0A988); assay: SPR competition on immobilised P1
[3] = target: E. coli β clamp (β subunit of DNA polymerase III, dnaN gene product), N-tagged (E. coli) (UniProt P0A988); assay: ITC, peptide 400 µM into β ring 20 or 30 µM, 25° C
[4] = target: E. coli β clamp (β subunit of DNA polymerase III, dnaN gene product), N-tagged (E. coli) (UniProt P0A988); assay: ITC / SPR
[5] = target: E. coli β clamp (β subunit of DNA polymerase III, dnaN gene product), N-tagged (E. coli) (UniProt P0A988); assay: ITC
[6] = target: E. coli β clamp (β subunit of DNA polymerase III, dnaN gene product) (E. coli) (UniProt P0A988); assay: SPR competition, β ring on immobilised P1
[7] = target: E. coli β clamp (β subunit of DNA polymerase III, dnaN gene product) (E. coli) (UniProt P0A988); assay: ITC, peptide 400 µM into β ring 30 µM, 25 °C
[8] = target: E. coli β clamp (β subunit of DNA polymerase III, dnaN gene product), N-tagged (E. coli) (UniProt P0A988); assay: SPR competition on immobilised P1; ΔG = -RT ln Ki
[9] = target: E. coli β clamp (β subunit of DNA polymerase III, dnaN gene product) (E. coli) (UniProt P0A988); assay: ITC, peptide 400 µM into β ring 30 µM, 25 °C, second experiment
[10] = target: E. coli β clamp (β subunit of DNA polymerase III, dnaN gene product), N-tagged (E. coli) (UniProt P0A988); assay: SPR competition (Biacore 3000): β ring 0.25 µM mixed with the challenger, injected on immobilised P1
[11] = target: T1, E. coli β clamp (β subunit of DNA polymerase III, dnaN gene product), N-tagged (E. coli, UniProt P0A988 1-366); assay: cell-based or functional assay
[12] = target: T1, E. coli β clamp (β subunit of DNA …); assay: SPR competition against P1
[13] = target: T1, E. coli β clamp (β subunit of DNA …); assay: SPR competition on immobilised P1
[14] = target: T2, E. coli β clamp (β subunit of DNA polymerase III, dnaN gene product) (E. coli, UniProt P0A988 1-366); assay: SPR competition, concentration of peptide that challenges 50% of the binding of β ring to P1
T2 construct: Expressed in BL21 E. coli from pET15b with an N-terminal tag; also called β ring; β protein; not shown: N-terminal tag from plasmid pET15b ('N-tagged protein', purified on Ni-NTA)

[15] = target: T2, E. coli β clamp (β subunit of DNA …); assay: ITC, peptide 400 µM into β ring 30 µM, 25 °C
[16] = target: T2, E. coli β clamp (β subunit of DNA …); assay: from ITC data; compared residues L/Cha
[17] = target: T2, E. coli β clamp (β subunit of DNA …); assay: SPR competition, β ring on immobilised P1
[18] = target: T2, E. coli β clamp (β subunit of DNA …); assay: ITC, peptide 400 µM into β ring 30 µM, 25 °C, second experiment
[19] = target: T2, E. coli β clamp (β subunit of DNA …); assay: from ITC data; compared residues F/pMeF
[20] = target: T2, E. coli β clamp (β subunit of DNA …); assay: ITC, peptide 400 µM into β ring 20 µM, 25 °C
[21] = target: T2, E. coli β clamp (β subunit of DNA …); assay: ITC, peptide 400 µM into β ring 20 µM, 25 °C, second experiment
[22] = target: T2, E. coli β clamp (β subunit of DNA …); assay: from ITC data; compared residues F/pClF
[23] = target: T2, E. coli β clamp (β subunit of DNA …); assay: from ITC data; compared residues pMeF/pClF
[24] = target: T2, E. coli β clamp (β subunit of DNA …); assay: from ITC data; compared residues pBrF/pClF
[25] = target: T2, E. coli β clamp (β subunit of DNA …); assay: from ITC data; compared residues pMeF/pBrF
[26] = target: T2, E. coli β clamp (β subunit of DNA …); assay: from ITC data; compared residues F/pBrF
[27] = target: T1, E. coli β clamp (β subunit of DNA …); assay: SPR direct binding: β protein (0.125 µM to 2 µM) injected on immobilised P1, 1:1 Langmuir model
[28] = target: T1, E. coli β clamp (β subunit of DNA …); assay: SPR competition (Biacore 3000): β ring 0.25 µM mixed with the challenger, injected on immobilised P1
[29] = target: T1, E. coli β clamp (β subunit of DNA …); assay: SPR competition on immobilised P1; ΔG = -RT ln Ki
[30] = target: T1, E. coli β clamp (β subunit of DNA …); assay: ITC, peptide 400 µM into β ring 30 µM, 25° C
[31] = target: T2, E. coli β clamp (β subunit of DNA …); assay: from ITC data; compared residues F/diClF
[32] = target: T2, E. coli β clamp (β subunit of DNA …); assay: from ITC data; compared residues pBrF/diClF
[33] = target: T2, E. coli β clamp (β subunit of DNA …); assay: from ITC data; compared residues pClF/diClF
[34] = target: T2, E. coli β clamp (β subunit of DNA …); assay: from ITC data; compared residues pMeF/diClF

Chain of E. coli β clamp (β subunit of DNA polymerase III, dnaN gene product) (E. coli) (P0A988 whole entry): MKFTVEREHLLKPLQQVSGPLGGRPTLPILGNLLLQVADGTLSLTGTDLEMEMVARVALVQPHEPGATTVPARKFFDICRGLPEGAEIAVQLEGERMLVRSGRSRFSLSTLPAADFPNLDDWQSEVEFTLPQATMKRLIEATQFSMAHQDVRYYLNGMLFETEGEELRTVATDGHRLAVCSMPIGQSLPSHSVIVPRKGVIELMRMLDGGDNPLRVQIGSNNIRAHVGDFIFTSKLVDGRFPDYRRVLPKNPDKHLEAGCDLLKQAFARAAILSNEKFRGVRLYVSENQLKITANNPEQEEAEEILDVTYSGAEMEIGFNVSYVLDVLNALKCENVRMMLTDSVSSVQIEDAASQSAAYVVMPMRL
Chain of E. coli β clamp (β subunit of DNA polymerase III, dnaN gene product), N-tagged (E. coli) (P0A988 whole entry): as above
T1 sequence (P0A988 whole entry): as above
T2 sequence (P0A988 whole entry): as above

Molecule: P14 (Ac-Q Cha DL diClF) (peptide)
- IC50, Pol IV based biochemical assay (inhibition of β dependent Pol IV elongation) [1]: 125 nM
- IC50 [2]: 70 nM
- fold increase against P1 [2]: 115 fold
- fold increase against P6 [2]: 15 fold
- fold increase against the full PolIV enzyme [2]: 4 fold
- Kd [3]: 65 nM
- fold increase in binding against P6 [4]: 10 to 15 fold
- Kd [5]: 60 nM

Molecule: P3 (RQLVLF) (peptide; other documents disagree on this pair)
- IC50 [6]: 8620 nM
- Kd [7]: 2820 nM
- ΔG [7]: -7.5 kcal/mol
- ΔH [7]: -5.77 kcal/mol
- ΔS [7]: 6.05 cal/mol/deg
- ΔG [8]: -7.04 kcal/mol
- Kd [9]: 2320 nM
- ΔG [9]: -7.6 kcal/mol
- ΔH [9]: -5.7 kcal/mol
- ΔS [9]: 6.6 cal/mol/deg
- IC50 [10]: 8620 nM

B1: P7 (Ac Q Cha DLF) (peptide)
peptide: Ac-Q[Cha]DLF-OH
SMILES: CC(=O)N[C@@H](CCC(N)=O)C(=O)N[C@@H](CC1CCCCC1)C(=O)N[C@@H](CC(=O)O)C(=O)N[C@@H](CC(C)C)C(=O)N[C@@H](Cc1ccccc1)C(=O)O
notes: also called Ac-Gln-Cha-Asp-Leu-Phe-OH
- IC50, Pol IV based biochemical assay (inhibition of β dependent Pol IV elongation) [11]: 2800 nM
- fold decrease in affinity against P14 [12]: 2 fold
- fold increase in the interaction against P6 [13]: 6 fold

B2: P7 (Ac-Gln-Cha-Asp-Leu-Phe-OH) (peptide)
peptide: Ac-Q[Cha]DLF-OH
SMILES: CC(=O)N[C@@H](CCC(N)=O)C(=O)N[C@@H](CC1CCCCC1)C(=O)N[C@@H](CC(=O)O)C(=O)N[C@@H](CC(C)C)C(=O)N[C@@H](Cc1ccccc1)C(=O)O
notes: also called AcQChaDLF; Ac Q Cha D L F
- Ki [14]: 170 nM
- Kd [15]: 246 nM
- ΔG [15]: -8.9 kcal/mol
- ΔH [15]: -21.3 kcal/mol
- ΔS [15]: -41.2 cal/mol/deg
- ΔΔG (ΔGj - ΔGi) of P7 against P6 [16]: -0.66 kcal/mol
- IC50 [17]: 170 nM
- Kd [18]: 222 nM
- ΔG [18]: -8.9 kcal/mol
- ΔH [18]: -20.5 kcal/mol
- ΔS [18]: -38.5 cal/mol/deg

B3: P11 (Ac-Gln-Cha-Asp-Leu-pMePhe-OH) (peptide)
peptide: Ac-Q[Cha]DL[Phe(4-Me)]-OH
SMILES: CC(=O)N[C@@H](CCC(N)=O)C(=O)N[C@@H](CC1CCCCC1)C(=O)N[C@@H](CC(=O)O)C(=O)N[C@@H](CC(C)C)C(=O)N[C@@H](Cc1ccc(C)cc1)C(=O)O
notes: also called AcQChaDLpMeF; Ac-Q Cha DL pMeF
- ΔΔG (ΔGj - ΔGi) of P11 against P7 [19]: 0.25 kcal/mol
- Kd [20]: 401 nM
- ΔG [20]: -8.6 kcal/mol
- ΔH [20]: -14.8 kcal/mol
- ΔS [20]: -20.4 cal/mol/deg
- Kd [21]: 362 nM
- ΔG [21]: -8.6 kcal/mol
- ΔH [21]: -14.4 kcal/mol
- ΔS [21]: -19 cal/mol/deg
- IC50 [17]: 260 nM

B4: P12 (Ac-Gln-Cha-Asp-Leu-pClPhe-OH) (peptide)
peptide: Ac-Q[Cha]DL[Phe(4-Cl)]-OH
SMILES: CC(=O)N[C@@H](CCC(N)=O)C(=O)N[C@@H](CC1CCCCC1)C(=O)N[C@@H](CC(=O)O)C(=O)N[C@@H](CC(C)C)C(=O)N[C@@H](Cc1ccc(Cl)cc1)C(=O)O
notes: also called AcQChaDLpClF; Ac-Q Cha DL pClF
- ΔΔG (ΔGj - ΔGi) of P12 against P7 [22]: -0.6 kcal/mol
- ΔΔG (ΔGj - ΔGi) of P12 against P11 [23]: -0.85 kcal/mol
- ΔΔG (ΔGj - ΔGi) of P12 against P13 [24]: -0.32 kcal/mol
- Kd [20]: 89 nM
- ΔG [20]: -9.6 kcal/mol
- ΔH [20]: -15 kcal/mol
- ΔS [20]: -18.1 cal/mol/deg
- Kd [21]: 122 nM
- ΔG [21]: -9.4 kcal/mol
- ΔH [21]: -14.3 kcal/mol
- ΔS [21]: -16.3 cal/mol/deg
- IC50 [17]: 160 nM

B5: P13 (Ac-Gln-Cha-Asp-Leu-pBrPhe-OH) (peptide)
peptide: Ac-Q[Cha]DL[Phe(4-Br)]-OH
SMILES: CC(=O)N[C@@H](CCC(N)=O)C(=O)N[C@@H](CC1CCCCC1)C(=O)N[C@@H](CC(=O)O)C(=O)N[C@@H](CC(C)C)C(=O)N[C@@H](Cc1ccc(Br)cc1)C(=O)O
notes: also called AcQChaDLpBrF; Ac-Q Cha DL pBrF
- ΔΔG (ΔGj - ΔGi) of P13 against P11 [25]: -0.53 kcal/mol
- Kd [20]: 136 nM
- ΔG [20]: -9.3 kcal/mol
- ΔH [20]: -18.1 kcal/mol
- ΔS [20]: -29.3 cal/mol/deg
- Kd [21]: 167 nM
- ΔG [21]: -9.1 kcal/mol
- ΔH [21]: -15.2 kcal/mol
- ΔS [21]: -20.2 cal/mol/deg
- ΔΔG (ΔGj - ΔGi) of P13 against P7 [26]: -0.28 kcal/mol
- IC50 [17]: 96 nM

B6: P1, natural C-terminal heptapeptide of E. coli DNA polymerase IV (RQLVLGL) (peptide)
peptide: H-RQLVLGL-OH
notes: Used free in solution as challenger and immobilised on the SPR chip; the way of immobilisation is not described; also called natural Cter heptamer; natural heptapeptide
- Kd [27]: 285 nM
- IC50 [28]: 8850 nM
- fold less efficient binding than the whole polymerase (PolIV) [13]: 30 fold
- ΔG [29]: -7.06 kcal/mol
- Kd [30]: 1000 to 2000 nM

B7: P14 (Ac-Gln-Cha-Asp-Leu-(3,4-di-Cl)Phe-OH) (peptide)
peptide: Ac-Q[Cha]DL[Phe(3,4-Cl2)]-OH
SMILES: CC(=O)N[C@@H](CCC(N)=O)C(=O)N[C@@H](CC1CCCCC1)C(=O)N[C@@H](CC(=O)O)C(=O)N[C@@H](CC(C)C)C(=O)N[C@@H](Cc1ccc(Cl)c(Cl)c1)C(=O)O
notes: also called AcQChaDLdiClF; Ac Q Cha D L diClF
- ΔΔG (ΔGj - ΔGi) of P14 against P7 [31]: -0.8 kcal/mol
- Ki [14]: 85 nM
- Kd [20]: 73 nM
- ΔG [20]: -9.6 kcal/mol
- ΔH [20]: -18.9 kcal/mol
- ΔS [20]: -30.8 cal/mol/deg
- ΔΔG (ΔGj - ΔGi) of P14 against P13 [32]: -0.52 kcal/mol
- Kd [21]: 55 nM
- ΔG [21]: -9.8 kcal/mol
- ΔH [21]: -18.1 kcal/mol
- ΔS [21]: -27.6 cal/mol/deg
- ΔΔG (ΔGj - ΔGi) of P14 against P12 [33]: -0.2 kcal/mol
- ΔΔG (ΔGj - ΔGi) of P14 against P11 [34]: -1.05 kcal/mol
- IC50 [17]: 77 nM
